Laboratory results taken from patent US20130195872A1 (NOVIMMUNE S A, published 2013).

T1: human IL-17A/IL-17F heterodimer (human, UniProt Q16552 24-155; Q96PD4 31-163, limits assumed)
T1 sequence (looked up) 1: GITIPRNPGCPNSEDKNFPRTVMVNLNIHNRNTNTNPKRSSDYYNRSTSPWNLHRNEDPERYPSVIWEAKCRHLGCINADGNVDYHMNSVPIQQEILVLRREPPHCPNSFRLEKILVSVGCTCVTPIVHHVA
T1 sequence (looked up) 2: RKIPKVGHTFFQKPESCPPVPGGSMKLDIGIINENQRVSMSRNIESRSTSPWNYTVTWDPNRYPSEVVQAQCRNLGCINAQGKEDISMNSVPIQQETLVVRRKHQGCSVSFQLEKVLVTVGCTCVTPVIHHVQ

T2: mouse IL-17A/IL-17F heterodimer (mouse, UniProt Q62386 26-158; Q7TNI7 29-161, limits assumed)
T2 sequence (looked up) 1: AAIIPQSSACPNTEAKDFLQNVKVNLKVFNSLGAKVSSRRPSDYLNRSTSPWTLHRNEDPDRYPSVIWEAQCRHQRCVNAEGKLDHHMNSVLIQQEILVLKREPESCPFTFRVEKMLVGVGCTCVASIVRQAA
T2 sequence (looked up) 2: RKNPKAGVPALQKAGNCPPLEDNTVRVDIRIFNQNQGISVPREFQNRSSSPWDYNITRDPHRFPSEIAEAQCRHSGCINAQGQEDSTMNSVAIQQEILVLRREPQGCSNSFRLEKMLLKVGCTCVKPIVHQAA

T3: mouse IL-17A homodimer (mouse, UniProt Q62386 26-158, limits assumed)
T3 sequence (looked up): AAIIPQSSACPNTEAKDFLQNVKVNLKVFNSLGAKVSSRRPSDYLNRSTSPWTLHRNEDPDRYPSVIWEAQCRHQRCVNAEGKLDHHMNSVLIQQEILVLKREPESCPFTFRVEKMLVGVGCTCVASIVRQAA

T4: mouse IL-17F homodimer (mouse, UniProt Q7TNI7 29-161, limits assumed)
T4 sequence (looked up): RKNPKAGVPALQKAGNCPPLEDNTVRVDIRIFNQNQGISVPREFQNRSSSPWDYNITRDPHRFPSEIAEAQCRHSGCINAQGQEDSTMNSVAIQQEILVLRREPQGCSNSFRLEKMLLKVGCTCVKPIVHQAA

T5: rat IL-17F homodimer (rat, UniProt Q5BJ95 29-161)
T5 sequence (looked up): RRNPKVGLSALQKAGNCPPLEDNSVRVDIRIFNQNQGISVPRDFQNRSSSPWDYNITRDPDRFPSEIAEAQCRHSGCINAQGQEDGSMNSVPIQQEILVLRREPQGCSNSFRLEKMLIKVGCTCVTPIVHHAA

T6: rat IL-17A homodimer (rat, UniProt Q61453 18-150, limits assumed)
T6 sequence (looked up): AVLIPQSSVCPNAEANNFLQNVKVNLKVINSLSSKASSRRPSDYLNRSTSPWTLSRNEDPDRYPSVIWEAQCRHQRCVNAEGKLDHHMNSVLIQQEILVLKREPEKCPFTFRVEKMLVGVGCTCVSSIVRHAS

T7: cynomolgus IL-17A homodimer (cynomolgus, UniProt A0A2K5TTB0 20-155)
T7 sequence: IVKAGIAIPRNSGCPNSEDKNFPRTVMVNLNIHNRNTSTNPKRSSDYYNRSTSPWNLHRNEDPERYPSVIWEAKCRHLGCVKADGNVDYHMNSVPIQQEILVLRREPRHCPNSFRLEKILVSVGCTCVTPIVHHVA

T8: human IL-17A homodimer (human, UniProt Q16552 20-155, limits assumed)
T8 sequence (looked up): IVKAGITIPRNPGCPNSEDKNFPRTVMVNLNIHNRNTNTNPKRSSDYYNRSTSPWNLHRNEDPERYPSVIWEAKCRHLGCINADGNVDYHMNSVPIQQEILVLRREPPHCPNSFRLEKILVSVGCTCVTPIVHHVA

T9: cynomolgus IL-17F homodimer (cynomolgus, UniProt G7P4V0 31-163)
T9 construct: range 31-163; Produced in house in PEAK cells, His-tagged, predominantly disulfide-linked homodimer; also called cyIL-17F; cnIL-17F; not shown: N-terminal His tag
T9 sequence: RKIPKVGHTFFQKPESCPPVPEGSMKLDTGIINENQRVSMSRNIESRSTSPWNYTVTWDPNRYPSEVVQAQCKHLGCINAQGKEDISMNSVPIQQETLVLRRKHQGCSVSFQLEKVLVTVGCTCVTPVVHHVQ


Tests used:
[1] = biological target: T1, human IL-17A/IL-17F heterodimer; assay: cell-based or functional assay
[2] = biological target: T2, mouse IL-17A/IL-17F heterodimer; assay: cell-based or functional assay
mouse IL-17A homodimer = biological target: T3, mouse IL-17A homodimer; assay: cell-based or functional assay
mouse IL-17F homodimer = biological target: T4, mouse IL-17F homodimer; assay: cell-based or functional assay
rat IL-17F homodimer = biological target: T5, rat IL-17F homodimer; assay: cell-based or functional assay
rat IL-17A homodimer = biological target: T6, rat IL-17A homodimer; assay: cell-based or functional assay
[3] = biological target: T7, cynomolgus IL-17A homodimer; assay: cell-based or functional assay
human IL-17A homodimer [4] = biological target: T8, human IL-17A homodimer; assay: cell-based or functional assay
human IL-17A homodimer [5] = biological target: T8, human IL-17A homodimer; assay: cell-based or functional assay; remark: listed apart in the source
[6] = biological target: T9, cynomolgus IL-17F homodimer; assay: FLISA, cytokine on beads
Description: (§1) After an incubation period of 2 to 8 hours the fluorescence of the beads was measured in an 8200 Cellular Detection System analyzer (Applied Biosystems). Hybridomas producing human IgGs that bound to huIL-17F, huIL-17A or both huIL-17F and huIL-17A, but not to BSA, were expanded and subjected to further analysis.
(§2) huIL-17F antibodies were tested for their ability to bind to the other members of the IL-17 family of cytokines, as well as to IL-17A and IL-17F from other species. The assay was performed in the FLISA format, as described above.

human IL-17A homodimer [7] = biological target: T8, human IL-17A homodimer; assay: FLISA, cytokine on beads
Description: as §1, §2

[8] = biological target: T9, cynomolgus IL-17F homodimer; assay: cell-based or functional assay
[9] = biological target: T7, cynomolgus IL-17A homodimer; assay: cell-based or functional assay; remark: listed apart in the source
[10] = biological target: cynomolgus IL-17A/IL-17F heterodimer (cynomolgus); assay: cell-based or functional assay
[11] = biological target: T7, cynomolgus IL-17A homodimer; assay: FLISA, cytokine on beads
Description: as §1, §2

IC50, IL-6 secretion by MEF cells, cytokine at 17.5 ng/ml [1]	IC50, IL-6 secretion by MEF cells, cytokine at 50 ng/ml [2]	IC50, IL-6 secretion by MEF cells, cytokine at 5 ng/ml (mouse IL-17A homodimer)	IC50, IL-6 secretion by MEF cells, cytokine at 50 ng/ml (mouse IL-17F homodimer)	IC50, IL-6 secretion by MEF cells, cytokine at 25 ng/ml (rat IL-17F homodimer)	IC50, IL-6 secretion by MEF cells, cytokine at 5 ng/ml (rat IL-17A homodimer)	IC50, IL-6 secretion by HFFF2 human fibroblasts, cytokine at 25 ng/ml [3]	IC50, IL-6 secretion by HFFF2 human fibroblasts, cytokine at 25 ng/ml (human IL-17A homodimer [4])	IC50, IL-6 secretion by MEF cells, cytokine at 5 ng/ml (human IL-17A homodimer [5])	binding result [6]	binding result (human IL-17A homodimer [7])	IC50, IL-6 secretion by MEF cells, cytokine at 25 ng/ml [8]	IC50, IL-6 secretion by MEF cells, cytokine at 5 ng/ml [9]	IC50, IL-6 secretion by MEF cells, cytokine at 25 ng/ml [10]	binding result [11]	Binder
4.4 nM	170 nM	> 1000 nM	6.2 nM	0.71 nM	> 1000 nM	20 nM	21 nM								39F12A antibody (antibody, V domains shown) VH: QVQLVQSGAEVKKPGSSVKVSCKASGGTLSSYAFSWVRQAPGQGLEWMGGIIPFFGTTNYAQKFQGRVIITADESTNTAYMELSGLRSEDTAVYYCARDRDYYGLGSPFYYYGMDVWGQGTTVTVSS VL: EIVLTQSPDFQSVTPKEKVTITCRASQSIGSSLHWYQQKPDQSPKLLIKYASQSFSGVPSRFSGSGSGTDFTLTINSLEAEDAATYYCHQSSSLPWTFGQGTKVEIK
> 1000 nM								> 1000 nM	binds	no binding					41B10 antibody (antibody, IgG4, V domains shown, also called 41B10 IgG4) VH: not shown VL: DIQMTQSPSSLSASVGDRVTITCRASQGISSWLAWYQQKPEKAPKSLIYAASSLQSGVPSRFSGSGSGTDFTLTISSLQPEDFATYYCQQYNSYPITFGQGTRLEIK
27 nM				30 nM	> 1000 nM	5.7 nM	3 nM	1.6 nM			130 nM	2.5 nM	13 nM		30D12BF antibody (antibody, V domains shown) VH: QVQLVQSGAEVKKPGASVKVSCKASGYTFTSYDINWVRQATGQGLEWMGWLNPDSGVIRYAQKFQGRVTMTRDTSISTAYMELSSLRSEDTAVYYCAREWFGELPSYYFYSGMDVWGQGTTVTVSS VL: EIVLTQSPATLSLSPGERATLSCRASQSVSSYLAWYQQKPGQAPRLLIYDASNRATGIPARFSGSGSGTDFTLTISSLEPEDFAVYYCQQRSNWPPTFGPGTKVDIK
910 nM								> 1000 nM	binds					binds	38B1 antibody (antibody, IgG1, V domains shown, also called 38B1 IgG1) VH: EVQLVESGGGLVQPGRSLRLSCAASGFTFDDFAMHWVRQAPGKGLEWVSGINWNSGSIGYADSVKGRFTISRDNAKNSLYLQMNSLRAEDTALYYCAKDIAAAGEFYFDMDVWGQGTTVTVSS VL: EIVLTQSPATLSLSPGERATLSCRASQSVSSYLAWYQQKPGQAPRLLIYDASNRATGIPARFSGSGSGTDFTLTISSLEPEDFAVYYCQQRSNWPPTFGQGTKLEIK
810 nM							> 1000 nM	680 nM	binds					binds	4B11 antibody (antibody, IgG1, V domains shown, also called 4B11 IgG1) VH: QLQLQESGPGLVKPSETLSLTCAVSDDYISSRSYYWGWIRQPPGKGLEWIGSIYYSGSTYYNPSLKSRVTISVDTSKNQFSLKVSSVTATDTAVYYCARVSGWNGNWFDPWGQGTLVTVSS VL: not shown
> 1000 nM								> 1000 nM	binds	no binding					5E12 antibody (antibody, IgG4, V domains shown, also called Mab05; 5E12 IgG4) VH: QVQLVQSGGGLVQPGRSLRLSCAASGFTFDDYAMHWVRQAPGKGLEWVSGISWNSGTIGYADSVKGRFTISRDNAKNSLYLQMNSLRAEDTALYYCAKELYISDWDSYSYGMDVWGQGTTVTVSS VL: not shown
810 nM							108 nM	87 nM	binds					binds	4H11 antibody (antibody, IgG1, V domains shown, also called Mab09; 4H11 IgG1) VH: EVQLVESGGGLVQPGGSLKLSCAASGFTFSGSSMHWVRQASGKGLDWVGRIRSKANSYATAYAASVIGRFTISRDDSKNTAYLQMNSLKTEDTAVYYCTTSVATTLTDYYGMDVWGQGTTVTVSS VL: EIVLTQSPATLSLSPGERATLSCRASQSVSSYLAWYQQKPGQAPRLLIYDASNRATGIPARFSGSGSGTDFTLTISSLEPEDFAVYYCQQRSNWPPFTFGPGTKVDIK
